Data from PMC5659210, “Extending the biocatalytic scope of regiocomplementary flavin-dependent halogenase enzymes” (Chemical Science, 2015).

System: Nc1ccccc1C(=O)O
Assay: Michaelis-Menten chlorination assay, HPLC, Fre-coupled
Format: biochemical, Pseudomonas fluorescens
Conditions: Fre in excess, 30 °C
Source text: Michaelis-Menten chlorination assay, HPLC, Fre-coupled on PrnA

| Substance | Km [µM] | kcat [s⁻¹] | kcat/Km [M⁻¹ s⁻¹] |
| --- | --- | --- | --- |
| PrnA (Pseudomonas fluorescens; E450K) | 384 ± 93 | 0.0155 ± 0.000833 | 40 ± 10 |
| PrnA (Pseudomonas fluorescens; E450K/F454K) | 205 ± 16 | 0.0303 ± 0.000667 | 148 ± 11.7 |
| PrnA (Pseudomonas fluorescens; E450K/F454R) | 378 ± 59 | 0.0212 ± 0.00117 | 56.7 ± 10 |
| PrnA (Pseudomonas fluorescens; F454K) | 3628 ± 1108 | 0.061 ± 0.0112 | 16.7 ± 6.67 |
